Test results reported in patent US10208121B2, “Anti-Axl antagonistic antibodies” (BERGEN TEKNOLOGIOVERFORING AS, priority 2014, dated 2019).

B1: c10C9: chimeric (mouse variable/human constant) IgG1 counterpart of antibody 10C9 (antibody)
heavy: QVQLQQPGPELVKPGASVKISCKTSDYNFTRYYIHWVKQRPGQGLEWIGWIYPGTGDSKYNEKFKGRATLTADTSSSTAYMQLSSQTSEDSAVYFCARNGNYWYFDVWGAGTAVTVSS
light: DIVMTQAAPSGPVTPGESVSISCRSSKSLLHSNGNTYLYWFLQRPGQSPQLLIYRMSNLASGVPDRFSGSGSGTAFTLRISRVEAEDVGIYYCMQHREYPFTFGGGTKLEIK
modifications: left off: a dimerising Fc or GST
notes: chimeric (mouse variable/human constant) IgG1 counterpart of antibody 10C9
B2: mouse Gas6: recombinant mouse (rm) Axl-ligand Gas6 (R&D Systems), used as a control (protein)
chain: DQCTPNPCDKKGTHICQDLMGNFFCVCTDGWGGRLCDKDVNECVQKNGGCSQVCHNKPGSFQCACHSGFSLASDGQTCQDIDECTDSDTCGDARCKNLPGSYSCLCDEGYTYSSKEKTCQDVDECQQDRCEQTCVNSPGSYTCHCDGRGGLKLSPDMDTCEDILPCVPFSMAKSVKSLYLGRMFSGTPVIRLRFKRLQPTRLLAEFDFRTFDPEGVLFFAGGRSDSTWIVLGLRAGRLELQLRYNGVGRITSSGPTINHGMWQTISVEELERNLVIKVNKDAVMKIAVAGELFQLERGLYHLNLTVGGIPFKESELVQPINPRLDGCMRSWNWLNGEDSAIQETVKANTKMQCFSVTERGSFFPGNGFATYRLNYTRTSLDVGTETTWEVKVVARIRPATDTGVLLALVGDDDVVPISVALVDYHSTKKLKKQLVVLAVEDVALALMEIKVCDSQEHTVTVSLREGEATLEVDGTKGQSEVSTAQLQERLDTLKTHLQGSVHTYVGGLPEVSVISAPVTAFYRGCMTLEVNGKILDLDTASYKHSDITSHSCPPVEHAT

Key:
[1] = target: T1, rhAxl-Fc chimera (recombinant human Axl) (Homo sapiens, UniProt P30530); experiment: Biacore surface plasmon resonance kinetic affinity determination on immobilized rhAxl-Fc; type: binding; conditions: chimeric antibodies, rhAxl immobilized on sensor chip, 25° C., 1:1 Langmuir binding model
T1 construct: Soluble recombinant antigens corresponding to the extracellular domains of members of the human TAM receptor family; purchased R&D Systems 154-AL
Protocol: Kinetic analysis of MAbs 10C9 and 10G5 interacting with rhAxl immobilized on the surface of the Biacore sensor chip. Overlay plots of sensograms for different antibody concentrations (1.3-666.7 nM for 10C9 and 0.3-166.7 nM for 10G5) are shown. The precise kinetic analysis was performed using BIA evaluation software and curve fitting according to 1:1 Langmuir binding model.
Kinetic analysis of chimeric antibodies c10C9 and c10G5 interacting with rhAxl immobilized on the surface of the Biacore sensor chip. Overlay plots of sensograms for different antibody concentrations (1.3-666.7 nM for c10C9 and 0.3-166.7 nM for c10G5) are shown. The precise kinetic analysis was performed using BIA evaluation software and curve fitting according to 1:1 Langmuir binding model.
Affinity determination of anti-Axl antibodies 10C9 and 10G5 was performed at 25° C. by surface plasmon resonance measurements using Biacore 3000 instrument (GE Healthcare). As a solid antigen-coated surface, a sensor chip CM5 with immobilized rhAxl-Fc chimera (R&D Systems, Cat. no. 154-AL) at density 190 RU was used.
For the kinetics measurements, different concentrations of anti-Axl antibodies (from 0.3 to 666.7 nM) in HBS-EP buffer (Biacore, Cat. no. BR-1001-88) were injected at flow rate of 30 μL/min with 3 min injection time followed by 5 min dissociation (buffer alone). After each cycle, the surface was regenerated by 30 sec injection of a regeneration solution (10 mM HCl, 1 M NaCl) at flow rate 50 μL/min.
The kinetic association (on-rate, kon) and dissociation (off-rate, koff) rates were calculated using BIAevaluation software and 1:1 Langmuir binding model. The equilibrium dissociation constant (KD) was calculated as the koff/kon ratio. The half-life (t1/2) of the formed antibody-antigen complexes was calculated as the ln 2/koff ratio.
Affinity determination of the chimeric anti-Axl antibodies c10C9 and c10G5 was performed at 25° C. by surface plasmon resonance measurements using Biacore 3000 instrument (GE Healthcare). As a solid antigen-coated surface, a sensor chip CM5 with immobilized rhAxl-Fc chimera (R&D Systems, Cat. no. 154-AL) at density 190 RU was used.
For the kinetics measurements, different concentrations of anti-Axl antibodies (from 0.3 to 333.3 nM) in HBS-EP buffer (Biacore, Cat. no. BR-1001-88) were injected at flow rate of 30 μL/min with 3 min injection time followed by 5 min dissociation (buffer alone). After each cycle, the surface was regenerated by 30 sec injection of a regeneration solution (10 mM HCl, 1 M NaCl) at flow rate 50 μL/min.

[2] = target: T2, human Axl (rhAxl-Fc chimera) (Homo sapiens, UniProt P30530); experiment: Biacore binding analysis on immobilized human Axl; conditions: 10 μg/mL, 25° C.
T2 construct: Soluble recombinant antigens corresponding to the extracellular domains of members of the human TAM receptor family; purchased R&D Systems 154-AL
Protocol: (§1) All binding experiments were performed using Biacore 3000 instrument (GE Healthcare) at 25° C. Soluble recombinant antigens corresponding to the extracellular domains of members of the human TAM receptor family, Axl (rhAxl-Fc chimera; R&D Systems, Cat. no. 154-AL), Mer (rhMer-Fc chimera; R&D Systems, Cat. no. 891-MR) and Tyro3 (rhTyro3/Dtk-Fc chimera; R&D Systems, Cat. no. 859-DK) were immobilized on the surface of CM5 sensor chip using amine coupling at the surface density of 393.0, 303.6 and 364.0 resonance units (RU), respectively. The Biacore run was performed in an automatic mode using Binding analysis wizard. Samples containing either MAb 10C9 or MAb 10G5 at concentration 10 μg/mL in HBS-EP buffer (GE Healthcare) were injected over the surfaces with immobilized antigens at flow rate of 30 μL/min for 3 min (association) followed by 5 min dissociation.
(§2) The binding experiments were performed using Biacore 3000 instrument (GE Healthcare) at 25° C. The soluble recombinant antigens corresponding to human Axl (rhAxl-Fc chimera; R&D Systems, Cat. no. 154-AL), mouse Axl (rmAxl-Fc chimera; R&D Systems, R&D Systems; Cat. no. 854-AX) and human Tyro3 (rhTyro3/Dtk-Fc chimera; R&D Systems, Cat. no. 859-DK) were immobilized on the surface of CM5 sensor chip using amine coupling at the surface density of 1,308.0, 2,115.9 and 1,429.0 RU, respectively. The Biacore runs were performed in an automatic mode using Binding analysis wizard.
(§3) The sample containing either MAb 10C9, MAb 10G5 or recombinant mouse (rm) Axl-ligand Gas6 (R&D Systems, Cat. no. 986-GS/CF) at concentration 10 μg/mL in HBS-EP buffer (GE Healthcare) was injected over the surfaces with immobilized antigens at flow rate of 30 μL/min for 3 min (association) followed by 5 min dissociation.
The sequence of Axl receptor from cynomolgus monkey (Macaca fascicularis; SEQ ID NO.43) was retrieved from WO2009062690A1. Based on the sequence, recombinant extracellular domain of cyno-Axl was generated by transient expression in CHO cells as a fusion protein with human Fc. The recombinant cyno-Axl-Fc was purified to homogeneity using Protein A-Sepharose (GE Healthcare). The binding experiments were performed using Biacore 3000 instrument (GE Healthcare) at 25° C. The soluble recombinant antigens corresponding to human Axl (rhAxl-Fc chimera; R&D Systems, Cat. no. 154-AL) and cyno-Axl were immobilized on the surface of CM5 sensor chip using amine coupling at the surface density of 775 and 880 RU, respectively. The Biacore runs were performed in an automatic mode using Binding analysis wizard.
The sample containing either MAb 10C9, MAb 10G5 or human Axl-specific MAb 5F11 (control) at concentration 10 μg/mL in HBS-EP buffer (GE Healthcare) was injected over the surfaces with immobilized antigens at flow rate of 30 μL/min for 3 min (association) followed by 5 min dissociation.
In addition, the Axl-binding properties of the chimeric antibodies c10C9 and c10G5 were tested using Biacore 3000 instrument (GE Healthcare) and a sensor chip CM5 coated with human Axl (rhAxl-Fc chimera; R&D Systems, Cat. no. 154-AL) at the surface density of 1,308.0 RU. The Biacore runs were performed in an automatic mode using Binding analysis wizard. The samples comprising either the chimeric antibodies c10C9 and c10G5 or their murine counterparts at concentration 10 μg/mL in HBS-EP buffer (GE Healthcare) were injected over the surfaces with immobilized antigens at flow rate of 30 μL/min for 3 min (association) followed by 5 min dissociation.

[3] = system: Axl-positive breast cancer cell line MDA-MB-231; experiment: Flow cytometry binding to Axl-positive MDA-MB-231 cells; type: cell-based, human; conditions: different antibody concentrations, MFI
Protocol: Different concentrations of mouse and chimeric antibodies were tested in flow cytometry for binding to triple-negative breast cancer cell line MDA-MB-231. The bound mouse and chimeric antibodies were detected with APC-conjugated donkey F(ab′)2 fragments specific for either mouse IgG (H+L), 1:500 dilution, or human IgG (H+L), 1:300 dilution, respectively (both from Jackson ImmunoResearch). The cell staining was measured using Accuri C6 flow cytometer (BD Biosciences). MFI, geometric mean fluorescence intensity.
The purified chimeric antibodies (>95% purity) were analysed for binding to Axl-positive breast cancer cell line MDA-MB-231 in flow cytometry. For comparison, the parental mouse MAbs 10C9 and 10G5 were used. For flow cytometry, the adherent cells in culture were washed with PBS, detached by treatment with trypsin (0.25%) for 1 min and hitting culture dish for full detachment. Trypsin was quenched by adding into the tissue flask the complete medium followed by washing the cells with PBS. During the washing steps, the cells were collected by centrifugation at 200 g for 5 min. The antibody was diluted for total concentration in PBS containing 0.02% bovine serum albumin (BSA). Cell staining was performed using 200 μL of cell suspension comprising 10^5 cells for 20 min at room temperature. The cell-bound antibodies were detected with APC-conjugated donkey anti-human or anti-mouse, respectively, IgG (H+L) F(ab′)2 fragments (Jackson ImmunoResearch). After two washing steps with PBS/0.02% BSA, the cells were resuspended in 200 μL and kept on ice before analysis on Accuri C6 flow cytometer (BD Biosciences).

[4] = target: T3, mouse Axl (rmAxl-Fc chimera) (Mus musculus, UniProt Q00993); experiment: Biacore binding analysis on immobilized mouse Axl; conditions: 10 μg/mL, 25° C.
T3 construct: The soluble recombinant antigens corresponding to human Axl (rhAxl-Fc chimera; R&D Systems, Cat. no; 154-AL), mouse Axl (rmAxl-Fc chimera; purchased R&D Systems 854-AX
Protocol: as §2, §3

[5] = target: T4, human Tyro3 (rhTyro3/Dtk-Fc chimera) (Homo sapiens, UniProt Q06418); experiment: Biacore binding analysis on immobilized human Tyro3; conditions: 10 μg/mL, 25° C.
T4 construct: Soluble recombinant antigens corresponding to the extracellular domains of members of the human TAM receptor family; purchased R&D Systems 859-DK
T4 sequence (Q06418 41-429 limits assumed): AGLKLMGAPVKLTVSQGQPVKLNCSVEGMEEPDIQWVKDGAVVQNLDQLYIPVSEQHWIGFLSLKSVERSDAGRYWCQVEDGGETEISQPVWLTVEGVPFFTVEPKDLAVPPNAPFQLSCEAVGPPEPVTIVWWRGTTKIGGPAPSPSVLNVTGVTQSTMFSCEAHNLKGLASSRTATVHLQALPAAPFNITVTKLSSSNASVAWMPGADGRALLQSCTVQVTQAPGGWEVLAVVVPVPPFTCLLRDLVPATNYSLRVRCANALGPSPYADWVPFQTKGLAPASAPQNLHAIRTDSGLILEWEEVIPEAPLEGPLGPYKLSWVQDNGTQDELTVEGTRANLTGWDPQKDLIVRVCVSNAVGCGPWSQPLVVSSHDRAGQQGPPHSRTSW
Protocol: as §1, §2, §3

T3 sequence (Q00993 19-445 limits assumed, change not shown): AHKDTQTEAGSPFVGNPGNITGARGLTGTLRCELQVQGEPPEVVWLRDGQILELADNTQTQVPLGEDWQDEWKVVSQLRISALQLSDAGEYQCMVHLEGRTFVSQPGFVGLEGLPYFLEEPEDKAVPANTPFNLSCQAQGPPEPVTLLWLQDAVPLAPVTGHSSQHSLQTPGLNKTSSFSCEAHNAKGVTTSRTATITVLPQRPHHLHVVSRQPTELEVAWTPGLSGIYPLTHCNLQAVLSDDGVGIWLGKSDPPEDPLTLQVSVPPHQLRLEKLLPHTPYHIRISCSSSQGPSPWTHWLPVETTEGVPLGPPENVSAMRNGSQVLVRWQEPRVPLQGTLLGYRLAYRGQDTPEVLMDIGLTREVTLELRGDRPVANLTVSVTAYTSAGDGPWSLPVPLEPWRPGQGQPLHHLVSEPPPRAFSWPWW

| Molecule | Off-rate (koff; s^−1) [1] [s⁻¹] | On-rate (kon; M^−1s^−1) [1] [M⁻¹ s⁻¹] | binding to human Axl [2] | binding to MDA-MB-231 cells in flow cytometry [3] | binding to human Axl ([2]; listed as murine Gas 6) | binding to mouse Axl [4] | binding to mouse Axl ([4]; listed as murine Gas 6) | binding to human Tyro3 [5] | binding to human Tyro3 ([5]; listed as murine Gas 6) |
| --- | --- | --- | --- | --- | --- | --- | --- | --- | --- |
| B1 | 0.000219 | 2.16e+06 | bind immobilized Axl with profiles very similar to the binding profiles of the corresponding mouse antibodies | Dose-dependent binding | – | – | – | – | – |
| B2 | – | – | strong binding | – | binds strongly | strong binding | binds strongly | somewhat weaker binding | more weakly |
